Source: the DeepSol protein solubility set

test: soluble on expression in E. coli; label from the status in PepcDB or PDB records

Sequence | soluble on expression in E. coli
MGSDKIHHHHHHMARLRVYELARKLNMSPKELLQELEELGVNVKSHMSYVDEEMANIIIDLLEEDNRKAKQPSKPKKEKGEEEVEKEVVEKKKKKKITLKPDELKLDIIAEKIGVPQNKIIQDMFVKRGIALRPGQILKLEEVEQILKEYKIEIEIEEEQQTSVEEVDEFELLEKRYQELYEKEKDKLVPRPPVVTVMGHVDHGKTTLLDRIRSTRVAEREEGGITQSIGAYQVEVNGKKITFIDTPGHELFTEMRARGAQATDIVVLVVAADDGVMPQTIEAYNHAKAANVPIIVAINKIDKPNANVEKTKQELVEKLGLIPEEWGGDTIVVPISARTGQGVDELLEMILLVAEMNEIKCYPEGPARAVIIESKLDKKMGPVASAIVKDGVLKVGDAVVASNTYGRVRNLFDDNMRPIREAYPSQPVMILGFEDVPDVHSNVYVVESAEKAKEIVEKRLQRLEAQKQSRKHINLEELMKMMQEKEKKVLNLILKADTYGSVAALKNAINKLQSKEIELNIVHAGVGEISTSDVMLAAAVDGVILGFRVKVNNQARRLAEQEGVDVRTYSIIYKLVEDLKLALEGMLEPEEVEEVIGHGEIRKVFKISKVGKVAGVQMLDGKADRNGFVRIYRNGQLVFGGKIESLKHYKEDVSVVEAPQECGIKFAGFDDIHEGDELEFYVIRKVKRKPTFVEEQADQEQK | not soluble
MKVEILPFGNMDQWVTREIKESGIIGGNTKKVYAIGPTETIVGAKPYANKGGSPWGTSNVMARVSGITKTNTSVFPETRGDGFCARLDTRMESVKVLGIVDITVLAAGSMFLGTVHEPIKSTKNPNKMLQMGIPFTDRPSAIQFDYKVKMSDRENRIRATGFSKITDVPGKDFPAVILLLQKRWEDAKGNVYAKRIGTMVNYYYHSTDWKNGSKYDIMYGDITKDPAYKAHMMRLQASEYFTVNSKGESVPIHEVAWGEADDVPTHMILQFTSSHGGAYIGSPGNSLYIDNVKLIYLEHHHHHH | soluble
LWLASDLHLGPATPATAEAFLGLLQAAADEASALLLPGDIFDAWIGDDVIRAAPPWLAAVLQGIRAAAGRIPVYLGRGNRDFLIGQELADALGAHLLPEPVLLETDYGRILLTHGDEYCTDDSAYQQFRAMVRNPQWQAQFLAMSIPERLAMAEQARGESQAANQAKSMEIMDVNPASVEAALREADVDVLVHGHTHRPARHVL | not soluble
MANHPRAGQPAQQSDLINVAQLTSQYYVLQPDAEDPAHAVKFGTSGHRGSSVRHSFNEAHILAIAQAIAEVRHQHGISGPCYVGKDTHALSEPAFISVLEVLTANGVDVVVQQDNGFTPTPAISHVILCHNAQGKALADGIVITPSHNPPEDGGIKYNPPNGGPADTNLTSVIEKRANQLLSQNLKGVKRQTLDKAWQSNHLREQDLLQPYVEGLVDVVDIPAIQQAGLKLGVDPLGGSGIAYWQRIAEYYKLDLTLVNNAIDQTFRFMHLDHDGVIRMDCSSESAMAGLLALRDKFDLAFANDPDYDRHGIVTPAGLMNPNHYLAVSINYLFQHRPQWGAGVAVGKTLVSSAMIDRVVADLGRKLVEVPVGFKWFVDGLHDGSFGFGGEESAGASFLRFNGTPWSTDKDGIIMCLLAAEITAVTGKDPQRHYDDLAQRFGAPSYNRIQAPATQAQKNALSRLSPEMVKANTLAGDPITARLTNAPGNGASIGGLKVMTENGWFAARPSGTEEAYKIYCESFLGAEHREKIEQEAVKIVSEVLAEAK | not soluble
AIPLTLFYKFTYPIIVAFNKSTDLVLKLFGIKQVDEHEEAHTDEEIRMLVEESYKHGLIDKTELTFVDNVFDFSEKTVKEIMVPRTDMKCIFVEDSFDDIVGVTIDEHFTRYPVCEESKDNIIGLIHIKDLYKLKINKEDEKIESIIREIKFVPESMSISELFRMFQKERMQMAIVIDEYGGTFGLVTIEDILEEIVGEIQ | not soluble
SLTEKDVLSQEEIDALLDSVDESIDGETNDEELNSSDQPARKKPEDTTGQELNSTFDSDIKVAEEGVKTLNFTGQERIVKGQLPVLDKIYDRAVRLFAADIYHLTARDFEIKQDPLLITKHKEFMRSLPNPSLIGIYKFKPLRGKGIILFDSTFVYDLVDYYFGGNSQFGAQKDKTDFTATELRVMEVVTKKLVTNLTHAWEPIIQLDVTKFNDETNPQLVNIAEPEEMLLVARFLLNFGKETGAFYFILPYSMLEPIKQQLELGASRPDDEIDPNWINSLKEELMDVELTVSASMAETVSTLGQVMAWKVGDFVPLEINEEVTLDIEGTPSFTATLGSANEKRALKIIKIIRY | soluble
MATIGLDRLYYAKITENENGEETYATPVPLAKAITAELSVELAEATLYADDGAAEVVKEFQSGTLTLGVADIGVDAAEVLTGATLDDNKVLISTSEDGGAPVAIGFRAKKANGKYRYFWLYRVKFGIPATNLQTKGDSITFSTPTIEGTVMRRNKPDGQGKHPWKAEVSEDDPGVLPETIAGWYTEVYEPVFAVGGGS | not soluble
MSLAVTLKDVAEACGVSYSTVSKALKNSQLVKPNTKQMIQQKALEMNYIPNHSARALVSKKSGTIGLIWPSVDRVAVTHLITEINLAIKSLGYVMFVSIDDVAAASKKFVEFGCDGIIIFDEDETTNLPPEIYNNVPVVAYGVDRDIPYPIVNVNHAEAMIIAIKELLAKGIDRIDYIGDIHTNDARQIAKKDAIANYCEQHHIQYRMIDSSGLNAIEAETSVKHFLQESSLAPGVICGSYDITVGTINAMGSDEQPIIYSYDNIPQIKKIDYPVQAIGVPTAEIAQQVVAILDKVIKGEPIENTYHLHPSLSHNQEGHHHHHH | soluble
MKRVLIFADIFPPAFAPRAAYLTKYLPRFGWEPFVITEKMPTPASQSHGDVFGGFCSDIPVTAIDLSSASFLSQAIRSARLFGELFWEQKEERFYKEAAKAFPSVKFDAVLCLTYRKFPLATACRYAQAHRLPWVADCRDVIEQYSNYDFLPRGKRLPSLLMKWLRHRYISLRNHYLHKADRVVSVSPWHCNLLAEVNPRTELIYNGYDPELFSRGSLPCGKFILSYTGRLLTPEMHDPTLLFEALASEALQEVRKERRIELHWYVDEYSRSILQPFIRQYALKDMCRFFPMVPAVQVPEILRHSSVLLQLGNTEKPGGPHGIVSTKLFESLAMEKPILMVRSDEAIVADIISEAEAGLAAQTTEEVATFLSDQYTRWKAEGDTSLRNPNRNFISTFSREEEAKQYARLLESIVAN | not soluble
MKILHTADWHLGQTFYEYDRREEHLHFLEWLKQQIRQHEIDVLLIAGDVFDSPNPSAESQRMYYRFLREVTSENPSLQIIIIAGNHDSAARLEAPNPLLENMNVTVRGVVRRNAEGDIDLQHLIVPLYTEGEVTAYCLAVPYLRQGDYPSAENYSKGVQLLYEQLFNEVKEKGLPVIAMGHLQATGSEISEDDRSERTVIGGLECVSPDAFDEAIAYTALGHLHRSQRVSHRENVRYSGTPMPMSFAERNNASGVVMITISAEGTGIERLA | not soluble
MPIITKNTDTTCQTPPLLSIICPAYNQEAFVAQALDGFLSQQTRFNYEILINDDASTDGTARIIAQYAERHPTIIRAFYQQVNQYSQGLPCVPDLFAEARGRYIAYCEADDYWTDPRKLQLQVDFLESHPDYVITYHDAVAFDENGEYGVQLQGHLRADATALELQQARRLSTLTTCFRNVFSTMPPELNIRVAPLNDMCWWSLLGAHGKGKFMADIKPAAYRLHAGGVFSMRSDKRKLHMNLQTCSSLANYYNLQGNQALYEYFLMQTVCLSLAALTPSHKLQTLWQVASNVVVNLGRRLLPTTGKAHVQ | not soluble
MGSDKIHHHHHHMNDIKMIRIGITGGTGFLGNRLVELLSKTNTPITCLTRESSNIETIEDKVKVIKGDLSNLESLEDFVKGQDVIVHLAAQVSRTTKKEYYQSNVLGTENLCKAINQYNPECRLINCSSIAAYRIKGWCKLQFTDYAKSKLSADRVVDSYMKTIKATTIIPGIIYGAGNNAFISAIIENLEKGKLFFAKGGEKFAPLSYIDDLCDLFIRAIYNEESVGNKYFGIKYSERGIHDFIRIIASKTYNKAPDAVLSKNKLMAKAVFWQFVYSFFKIKKAPTLSIRMVDIMSINYSLSEEQRTNNLGWEPSVDMEEGVDNALLSYNLKKDSTNRS | not soluble
MLKTISPLISPELLKVLAEMGHGDEIIFSDAHFPAHSMGPQVIRADGLLVSDLLQAIIPLFELDSYAPPLVMMAAVEGDTLDPEVERRYRNALSLQAPCPDIIRINRFAFYERAQKAFAIVITGERAKYGNILLKKGVTP | soluble
ELLCPAGTLKSMRYAFAYGADAVYAGQPRYSLRVRNNDFDHAQLAEGIAEAHALGKRFYVVVNIAPHNAKLKTFLRDLEPVVAMGPDALIMSDPGLIMLVRQHFPQMPIHLSVQANAVNWAAVQFWRQQGLTRVILSRELSLEEIEEIRQQVPDMELEVFVHGALCMAYSGRCLLSGYINRRDPNQGTCTNACRWEYKAVEGREDELGNVVAREPTLGRGAPTEQVFLLEEGNRPGEPMAAFEDEHGTYIMNSKDLRAVQHVERLARIGVHSLKIEGRTKSHYYVARTAQVYRQAIDDAAAGKPFDRGLMDTLESLAHRGYTEGFLRRHVHDEYQNYQHGHSLSERQQFVGELTGERRDGLAEVEVKNRFQRGDSVELMTPRGNLSLRVEDLRNAAGEAIEVAPGNGHVVYLALPEGLDLCYALLMRDLQPGQDTRQPQAERSGGCAGK | not soluble
MRPLTLHTPKPLVRAGGIPLIEYHLNALRAAGFHQLVINHAWLGQQIEDYLGDGQRFDLSIRYSAEGQPLETGGGIQRALPLLGAEPFVVVNGDVWTDYDFGALRMPLAGLAHLVLIDNPAHHPTGDFSLVDGQVRDDDSAGLRLTYSGIAILHPQLFADCEPGAFKLAPLLREAMHQGLVTGEHFKGRWVDVGTHERLAEVEQLLAETRLEHHHHHH | not soluble
MIINNVKLVLENEVVNGSLEMQDGEIRAFAESQSRLPEAMDGEGGWLLPGLIELHTDNLDKFFTPRPKVDWPAHSAMSSHDALMVASGITTVLDAVAIGDVRDGGDRLENLEKMINAIEETQKRGVNRAEHRLHLRCELPHNTTLPLFEKLVQREPVTLVSLMDHSPGQRQFANREKYREYYQGKYSLTDAQMQQYEEEQLALAARWSQPNRESIAAMCRARQIALASHDDATHAHVAESHQLGSVIAEFPTTFEAAEASRKHGMNVLMGAPNIVRGGSHSGNVAASELAQLGLLDILSSDYYPASLLDAAFRVADDQSNRFTLPQAVKLVTKNPAQALNLQDRGVIGEGKRADLVLAHRKGNHIHIDHVWRQGKRVF | not soluble
ETAADNAAYWSIATTMRSDNSALSAVQDALGLGAAKVDTAYDALESTIEVVKQIKAKLVAAYGVGADRGKIQDEIKQLQEQLKSISESASFSGENWLQASISNSGTPPVAESITKKVVASFTRTGSGNVGVTTVDYTLDSSTVLFDLSGGKLGILDKNAVFVSKTETEVMQTSTTAGKTSQAGYVVEKLSDAQIGALNATTTDTNTDPNLYSNGTDNYLRLAENVWVKATATNPSSGGTTVSPAYRDTGSTDWFYDVSAGTASANRSLGFSVSTLDLGNLDVVAAAMGGFAGGGTTYTGADAIDMMMSFVDKQLEAMTSTASSLGSLQSRISMQENFVSSLMDVIDKGVGRLV | not soluble
MKDIEKARRYLRNAGEMLRKNEVDEDGIYNNRKHVKIAGNRAYSGVLTALDAVLGNKTSDRKTLDWYEEELTNIDPKILPYFLTAYDVLYLAMGYDGNLIAAISKEGLDIAEKIINWAEQRTAA | not soluble
